{
  "source": "the DeepSol protein solubility set",
  "data": [
    {"assay": "soluble on expression in E. coli; label from the status in PepcDB or PDB records", "values": [
      {"sequence": "MSLKDFAGRTAFVTGGANGVGIGLVRQLLNQGCKVAIADIRQDSIDKALATLEAEGSGPEVMGVQLDVASREGFKMAADEVEARFGPVSILCNNAGVNLFQPIEESSYDDWDWLLGVNLHGVVNGVTTFVPRMVERVKAGEQKGGHVVNTASMAAFLAAGSPGIYNTTKFAVRGLSESLHYSLLKYEIGVSVLCPGLVKSYIYASDDIRPDALKGEVKPVDKTAVERLAGVHEFGMEPDVIGARVIEAMKANRLHIFSHPDHKEELREVFDEIIAEYQDYPKDPGYDQRVAFEKFRADSFAEARRQSRAADEGHHHHHH", "soluble on expression in E. coli": "soluble"},
      {"sequence": "MSLKDSGILFVDDDILFLALLRECFMQRGIVIQCAENGEDALQMIQQRPFALLLTDLQMPGMDGLELAGKARKLMPDLPIVLCTGAVTPEVCALAEEIGIAQVVRKPIRFSELFAIVGNIVSLQQTEGHHHHHH", "soluble on expression in E. coli": "soluble"},
      {"sequence": "MSLKEFYIGDQFYLDGEPFKILSGAIHYFRVHPDDWYHSLYNLKALGFNTVETYVPWNMHEPRKGEFCYEGILDIERFLKLAQELGLYAIVRPSPYICAEWEWGGLPAWLMKEELRVRSSDSVYLQHLDEYYVSLIPKLAKLQLAQGGNVLMFQVENEYGSYGEEKAYLRAVAGLMRKHGLTAPLFTSDGSWRATLRAGTLIEDDVFVTGNFGSKARENFANMTAFFNEHQKNWPLMCMEFWDGWFNRWGDEIIRREPEEMVDSVMECIELGSLNLYMFHGGTNFGFMNGCSARGQIDLPQVTSYDYDAILDEAGNPTKKFYILQQRLKEVYPELEYAEPLVKEAKAFSDVSLHDKVSLFATLENVSDCVKGFYPKNMEELDQSTGYILYRTELERDKTEAERFRVVDARDRIQIYADGKFVATQYQTEIGDDVELDFKDDKLTLDILVENMGRVNYGHKLTAPTQSKGIGRGAMADLHFIGHWETYPLHLESVEDLDFSKGWEEGQAAFYRYQFELDELADTYLDMTGFGKGVVFVNNVNIGRFWEKGPILYLYIPKGYLKKGANEIVVFETEGKYREKIHFSQRPVIKDLEGHHHHHH", "soluble on expression in E. coli": "soluble"},
      {"sequence": "MSLKEVIFVLLNEFADWEGAFIAACLNQGVMPGSPVPYKVKTLSITKEPVSSIGGFRVLPDYDLKDMPEDYAGLILIGGMSWFSPEAELIAPLIEKAIKDKKVVGGICNASVFLAMHGFLNNVKHTSNTIDYLKQHVGERYTGDSNYVDQQAVRDGKIITANGTGQLEFCREILYALEADTAEAIEKSYLFYKNGEGHHHHHH", "soluble on expression in E. coli": "soluble"},
      {"sequence": "MSLKHTRPSIVNKRIDGRLTMSDNSKTRVVVGMSGGVDSSVTALLLKEQGYDVIGIFMKNWDDTDENGVCTATEDYKDVVAVADQIGIPYYSVNFEKEYWDRVFEYFLAEYRAGRTPNPDVMCNKEIKFKAFLDYAMTLGADYVATGHYARVARDEDGTVHMLRGVDNGKDQTYFLSQLSQEQLQKTMFPLGHLKKPEVRKLAEEAGLSTAKKKDSTGICFIGEKNFKNFLSNYLPAQPGRMMTVDGRDMGEHAGLMYYTIGQRGGLGIGGQHGGDNAPWFVVGKDLSKNILYVGQGFYHDSLMSTSLEASQVHFTREMPEEFTLECTAKFRYRQPDSKVTVHVKGDKAEVIFAEPQRAITPGQAVVFYDGEECLGGGLIDNAYRDGQVCQYIEGHHHHHH", "soluble on expression in E. coli": "soluble"},
      {"sequence": "MSLKHVIVETEETGYQTRSRVVSVEARTIRVPLERSTAFSTRLVTARDYTVVRVTTADGHYGIGFCYSGNRAGMLVTYAVRELFAPLLLGRSALDVEGSWCAMYDESLLQGRAGSVMRALSILDIALWDRNARATGLPLSRYLGGTCSATVPAYASGGYYLEGKTPEHLGEEMAGYVALGFRAVKMKVGRLDPRSEEARIRAAREAIGDDVLLMLDANNAWSDVPTALEYMRRYEPFNPYWIEEPFSPDDIESHAQLSRRTPVTVATGEIEAGRWRHQELLDKRAALILQSDAAVCGGISEWRRIAASAAAVGVTMCPHWFHDLHVHLVASTTNARYVEFFPDDQVLNFRRLVDTQLSFADGKLTVPTRPGLGFDFDEAALNEYALDDWAEGHHHHHH", "soluble on expression in E. coli": "not soluble"},
      {"sequence": "MSLKIAEAAARSGLSIDTIRFYERSGLLPPIARGADGMRRFSPETVDWLRLLASLRETGMELRAMRRFAELYRQGDATIPERRRILQDHAASLNGRRAALDRCAALLAHKLQRYCEIEGEGHHHHHH", "soluble on expression in E. coli": "not soluble"},
      {"sequence": "MSLKIGIIGASGKAGNEILKEAKKRGHEVTAIVRNASKVQEQDVAILEKDVFELTAEDIKPFDAVVNAFGAAPGQEHLHVEAGRALISILKDAKHTRLLVVGGAGSLFVDEAKTTRLMDTPEFPKEYLPTASNQGENLKDLQQTDSISWTFLSPAAFFDPAGKRTGSYQKGKDNVIVNAKGDSYISYADYAIAVLDELEHPEHKNERFTVVSEAEEGGSHHHHHH", "soluble on expression in E. coli": "soluble"},
      {"sequence": "MSLKIIILGAGQVGGTLAENLAGENNDITIVDTDSDRLRELQDKFDLRVVNGHGAHPKVLREAGAQDADMLVAVTNSDETNMVACQVAYSLFNTPNKVARIRSPAYLVERDRLFLPESVPVDHLIAPEQLVTDYVRRLIEYPGALQVVDFAGGKVGLVAVKAYYGGPLVGNALSTLRDHMPNIETRVAAIFRQGRSIRPQGTTIIEADDEVFFVAAAGHIRAVMSELQRLESPYRRIMIVGGGNIGAGLARQLEKRYSVKLIERNQKRAEQLSEVLENTIVFCGDAADQELLAEEHIDQIDVFIAVTNEDEANIMSALLAKKMGAKKTMVLIQRSAYVDLVQGGSIDIAISPQQATISALLTHVRRADIANVYSLRRGAAEAIEAIAHGDENTSKVVGKTVGELKLPPGTTIGAIVRGDEVLIAHDRTQIQQDDHVVMFLVDKKYIPEVERLFQPSPFFLEGHHHHHH", "soluble on expression in E. coli": "soluble"},
      {"sequence": "MSLKILIIEDDLALARSISHNLHDLGHFCEIISSISEENKEPYDVILVSSKVCTQGRCEHFVRYNSKQIIIMMASHVNEDGVNKPIQAGARDYILKPFKMDELLRKIQYHKAYQEMTARLGFYENYLDFIHAELPLPKDFSYRPPFIIHTPSQELANAYLLQYAKERQMDFSFFSLKDTTWKELYKNKDKLERPFYIMHLEELKKDEQLKLLELARSCPIVLSYTHKEPLEFPKIVSIECGNKPLSLFNNHTTFLSIQEYEKEAIRHFSSTCTDTELANKLGISRKSLWEKRRKYNLPREGHHHHHH", "soluble on expression in E. coli": "soluble"},
      {"sequence": "MSLKILVIGGTGNIGLPLIQYLDQQVGVQVVAGAHNLHKDEQLLATYPDVEIRRFDFLDETTFDAALRGIQKVFFVRPPQLAKPKQDMWPFLKCLQAHHIEQVVFVSLMGVEHNPMTPHHQIEQMIEQLQLPYTFIRPSFFMQNLNTTHRVDIQQNHDLFIPAGRSKTSFIDTRDIGEIAGVALLDTQYLQQKLTVTGPEALTYQQIAALMTESFGHPVTYHRPSLWRFRRVMLKRGIKKDYVNVMVMLYLITQLGNAKRVTDTAEKVLGHAPHTMTTYLRDYADQLQEGHHHHHH", "soluble on expression in E. coli": "not soluble"},
      {"sequence": "MSLKILVIGPSWVGDMMMSQSLYRTLKARYPQAIIDVMAPAWCRPLLSRMPEVNEAIPMPLGHGALEIGERRRLGHSLREKRYDRAWVLPNSFKSALIPFFANIPHRTGWRGEMRYGLLNDARVLDKDAWPLMVERYVALAYDKGVMRAAKDLPQPLLWPQLQVSEGEKSLMCSDFSLSSERPLIGFCPGAEFGPAKRWPHYHYAELAKQLINEGYQVVLFGSAKDHEAGNEILAALNSEQQAWCRNLAGETQLEQAVILIAACKAIVTNDSGLMHVAAALDRPLVALYGPSSPDFTPPLSHKARVIRLITGYHKVRKGDTAQGYHQSLIDITPQRVLEELHSLLSEEGVEGGSHHHHHH", "soluble on expression in E. coli": "soluble"},
      {"sequence": "MSLKKDIIILGIESSCDDTSAAVVRNETMLSNVIAGQAVHKAYGGVVPELASRAHQQNIVPVVSEAIKRAGIRKEEIDAIAFTRGPGLLGSLLVGTSFAKGLSLSLGIPMLEVNHLHAHVLANFLREPGEESQHPSFPFLCLLVSGGNSQIILVRSPYDMEVIGQTIDDAAGEAFDKCAKVMGLGYPGGPIVNKLASEGNPDAFRFARPHVSGYDYSFSGLKTSFLYTLRDKLAEDPDFIEKNKADLCASLQHTVIDILMKKLRQAAKDHSIKQVALAGGVSANTGLRDAFHDHARRYGWTVFIPKFAYTTDNAAMVAISGYYKYLQGDFCPIDAVPFSRITVEGHHHHHH", "soluble on expression in E. coli": "soluble"}
    ]}
  ]
}
